Experimental findings from patent US20220041746A1 (Sanofi, published 2022) are described below.

Values joined by “and” are separate entries in the source; they are usually repeats but may differ in a detail not shown here. Equal values may be shown once. Read-outs that look alike come from different tables or passages of the source.

The target of experiment [1] is T1, CD38 isoform A (SEQ ID NO:1) (human, UniProt P28907 45-300).
T1 construct: also called huCD38 isoform A
Description: ELISA, plate coated with the CD38 isoform. As to the method: (§1) 96-well plates were coated with either isoform at 0.5 μg/well in PBS and 100 μL/well of antibodies were added to the plate. The plate was incubated at 37° C. for 1 h and washed five times with PBS containing 0.05% Tween-20 (PBS-T). […] Following incubation at 37° C. for 1 h in darkness, plates were washed with PBS-T five times. Antibody binding w as visualized by adding TMB-H2O2 buffer and read at a wavelength of 450 nm. EC50 values were estimated using BIOST@T-SPEED software.

The target in experiment [2] is T2, CD38 isoform E (SEQ ID NO:105) (human, UniProt P28907 45-195, limits assumed).
T2 construct: also called huCD38 isoform E
Put plainly: ELISA, plate coated with the CD38 isoform. As to the method:
as §1

Experiment [3] addresses T3, human CD38 expressed on the cell surface (human, UniProt P28907 1-300).
T3 construct: whole, on cells; also called hCD38-expressing cells; huCD38
Put plainly: flow cytometry on SU-DHL-8 cells (SUDHL8).

The target in experiment [4] is T3, human CD38 expressed on the cell surface. Put plainly: flow cytometry on preB::300.19 cells, apparent KD. Here is the method: (§2) The recombinant cell line was described by J. Deckket et al. 2014 Clin Cancer Res 20:4574-4583. […] Antibody binding was evaluated after centrifugation and resuspension of cells by adding 200 μL/well PBS 1% BSA and read using Guava® easvCyte™ 8HT Flow Cytometry System. Apparent KD and EC50 values were estimated using BIOST@T-BINDING and BIOST@T-SPEED software, respectively.

In experiment [5] the target is T4, cynomolgus monkey CD38 expressed on the cell surface (cynomolgus monkey, UniProt Q5VAN0 1-301).
T4 construct: whole, on cells; also called cCD38-expressing cells
Put plainly: flow cytometry on preB::300.19 cells, apparent KD. Here is the method:
as §2

In experiment [6] the target is T3, human CD38 expressed on the cell surface. Description: flow cytometry on preB::300.19 cells, apparent KD. As to the method:
as §2
This is another data set of the same source.

Experiment [7] addresses T4, cynomolgus monkey CD38 expressed on the …. Put plainly: flow cytometry on preB::300.19 cells, apparent KD. As to the method: as §2
This is another data set of the same source.

For experiment [8] the target is unchanged. Description: flow cytometry on PreB cynoCD38-expressing cells.
For experiment [9], the target named is T5, hCD38-his (SEQ ID NO: 2) (human, UniProt P28907 45-300).
T5 construct: His-tagged soluble protein derived from isoform A; also called human CD38-histag; hCD38::Histag
Put plainly: SPR, mAb captured via anti-human Fc, soluble CD38-his injected. Here is the method: (§3) The binding properties of the anti-huCD38 mabs were evaluated using a BIAcore 2000 (BIAcore Inc., Uppsala, Ni). […] The surface was regenerated between injections using 30 μL of 50 mM NaOH-1 M NaCl. Individual sensorgrams wore analyzed using BIAsimulation software.

The target in experiment [10] is T6, cCD38-his (SEQ ID NO: 4) (cynomolgus monkey, UniProt Q5VAN0 46-301).
T6 construct: His-tagged soluble protein; also called cyno CD38-histag; cynoCD38::Histag
The description is as above. Here is the method: as §3

The target in experiment [11] is T5, hCD38-his (SEQ ID NO: 2). Described as above. Here is the method:
as §3
The source holds these as a separate data set.

Experiment [12] concerns the target T6, cCD38-his (SEQ ID NO: 4). Described as above. Here is the method: as §3
The source holds these as a separate data set.

The target of experiment [13] is T3, human CD38 expressed on the cell surface. Description: flow cytometry on MOLP-8 multiple myeloma cells [Cont.].
The target in experiment [14] is T7, recombinant human CD38 (SPR of Example 4) (human, UniProt P28907 45-300, limits assumed). Put plainly: SPR, target binding without other targets present. As to the method:
(§4) Surface regenerate was conducted by injecting 10 mM Glycine-HCl pH 2.5 for 60 sec at 30 μl/min. […] Equilibrium dissociation constant (KD) was calculated using association rate constant (kₒₙ) and dissociation rate constant (koff).
(§5) Next, each antigen binding domain of the CD38SB19×CD28ₛᵤₚ×CD3mid specific binding protein was evaluated by SPR for the ability to bind cognate antigen with and without the other two antigen binding domains in saturation.

The target in experiment [15] is T3, human CD38 expressed on the cell surface. Put plainly: flow cytometry on preB::300.19 cells, apparent KD. As to the method:
(§6) The recombinant cell line was described by J. Deckket et al. 2014 Clin. Cancer Res 20:4574-4583. […] Antibody binding was evaluated after centrifugation and resuspension of cells by adding 200 μl/well PBS 1% BSA and read using Guava® easyCyte™ 8HT Flow Cytometry System. Apparent KD and EC50 values were estimated using BIOST®T-BINDING and BIOST®T-SPEED software, respectively.
This is another data set of the same source.

Experiment [16] shares this target. Description: flow cytometry on 300.19 huCD38 cells (PréB hCD38). As to the method: as §6
Experiment [17] deals with T7, recombinant human CD38 (SPR of Example …). Put plainly: SPR, target binding with the other two targets in saturation. Here is the method: as §4, §5
The target is the same in experiment [18]. Put plainly: SPR.
Experiment [19] deals with T4, cynomolgus monkey CD38 expressed on the …. Put plainly: flow cytometry on 300.19 cynoCD38 cells (PréB cCD38). Here is the method:
as §6

B1: mAb1 (antibody, human IgG1, kappa, V domains shown)
VH: QVQLQQSGAELVRSGASVKMSCKASGYTFTSFNMHWVKETPGQGLEWIGYIYPGNGGTNYNQKFKGKATLTADTSSSTAYMQISSLTSEDSAVYFCARTGGLRRAYFTYWGQGTLVTVSS
VL: DIVLTQSPASLAVSLGQRATISCRASESVDSYGNGFMHWYQQKPGQPPKLLIYLASNLESGVPARFSGSGSRTDFTLTIDPVEADDAATYYCQQNKEDPWTFGGGTKLEIKR
notes: also called antiCD38_C2-CD38-1
Regarding B1, the EC50 in [1] is 0.11 nM; in experiment [2], 0.08 nM; in experiment [3], 0.24 nM and 0.0366 µg/mL; in experiment [8], 0.033 µg/mL and 0.15 nM; in [13], 0.98 nM and 0.148 µg/mL. Besides, the Kd in [4] was 0.28 nM; in experiment [5], 0.22 nM; in [6] it was 0.28 nM; in experiment [7], 0.22 nM; in the experiment with hCD38-his (SEQ ID NO: 2) [9], 0.336 nM; with cCD38-his (SEQ ID NO: 4) [10], 0.39 nM. The values for the Kd with hCD38-his (SEQ ID NO: 2) [11] and with cCD38-his (SEQ ID NO: 4) [12] were 0.336 nM and 0.39 nM, respectively. Moreover, the koff with hCD38-his (SEQ ID NO: 2) [9] was 0.000266 s⁻¹; in the experiment with cCD38-his (SEQ ID NO: 4) [10], 9.85e-05 s⁻¹; in the experiment with hCD38-his (SEQ ID NO: 2) [11], 0.000266 s⁻¹; in the experiment with cCD38-his (SEQ ID NO: 4) [12], 9.85e-05 s⁻¹.

B2: CD38SB19×CD28sup×CD3mid trispecific binding protein (other)
VH 1: QVQLVQSGAEVAKPGTSVKLSCKASGYTFTDYWMQWVKQRPGQGLEWIGTIYPGDGDTGYAQKFQGKATLTADKSSKTVYMHLSSLASEDSAVYYCARGDYYGSNSLDYWGQGTSVTVSS
VL 1: DIVMTQSHLSMSTSLGDPVSITCKASQDVSTVVAWYQQKPGQSPRRLIYSASYRYIGVPDRFTGSGAGTDFTFTISSVQAEDLAVYYCQQHYSPPYTFGGGTKLEIK
VH 2: QVQLVQSGAEVVKPGASVKVSCKASGYTFTSYYIHWVRQAPGQGLEWIGSIYPGNVNTNYAQKFQGRATLTVDTSISTAYMELSRLRSDDTAVYYCTRSHYGLDWNFDVWGKGTTVTVSS
VL 2: DIQMTQSPSSLSASVGDRVTITCQASQNIYVWLNWYQQKPGKAPKLLIYKASNLHTGVPSRFSGSGSGTDFTLTISSLQPEDIATYYCQQGQTYPYTFGQGTKLEIK
VH 3: QVQLVESGGGVVQPGRSLRLSCAASGFTFTKAWMHWVRQAPGKQLEWVAQIKDKSNSYATYYADSVKGRFTISRDDSKNTLYLQMNSLRAEDTAVYYCRGVYYALSPFDYWGQGTLVTVSS
VL 3: DIVMTQTPLSLSVTPGQPASISCKSSQSLVHNNANTYLSWYLQKPGQSPQSLIYKVSNRFSGVPDRFSGSGSGTDFTLKISRVEAEDVGVYYCGQGTQYPFTFGSGTKVEIK
For the molecule B2, the figures for the Kd in experiment [14], in [15] and in experiment [17] were 1.75 nM, 4 nM and 2.42 nM, respectively. In experiment [16], the 50% effective concentration (EC50) is 4 nM and 0.603 µg/mL.

B3: CD38HHY1370×CD28sup×CD3mid (other)
VH 1: QVQLVESGGGVVQPGRSLRLSCAASGFTFSSYGMHWVRQAPGKGLEWVAVIWYDGSNKYYADSVKGRFTISGDNSKNTLYLQMNSLRAEDTAVYYCARMFRGAFDYWGQGTLVTVSS
VL 1: AIQMTQSPSSLSASVGDRVTITCRASQGIRNDLGWYQQKPGKAPKLLIYAASSLQSGVPSRFSGSGSGTDFTLTISGLQPEDSATYYCLQDYIYYPTFGQGTKVEIK
VH 2: QVQLVQSGAEVVKPGASVKVSCKASGYTFTSYYIHWVRQAPGQGLEWIGSIYPGNVNTNYAQKFQGRATLTVDTSISTAYMELSRLRSDDTAVYYCTRSHYGLDWNFDVWGKGTTVTVSS
VL 2: DIQMTQSPSSLSASVGDRVTITCQASQNIYVWLNWYQQKPGKAPKLLIYKASNLHTGVPSRFSGSGSGTDFTLTISSLQPEDIATYYCQQGQTYPYTFGQGTKLEIK
VH 3: QVQLVESGGGVVQPGRSLRLSCAASGFTFTKAWMHWVRQAPGKQLEWVAQIKDKSNSYATYYADSVKGRFTISRDDSKNTLYLQMNSLRAEDTAVYYCRGVYYALSPFDYWGQGTLVTVSS
VL 3: DIVMTQTPLSLSVTPGQPASISCKSSQSLVHNNANTYLSWYLQKPGQSPQSLIYKVSNRFSGVPDRFSGSGSGTDFTLKISRVEAEDVGVYYCGQGTQYPFTFGSGTKVEIK
B3: the Kd in experiment [18] amounted to 1 nM. Further, the binding result in [19] is “binds”.
